B1: FIP200NTD (domain or fragment, human, UniProt Q8TDY2 1-640, looked up)
chain: MKLYVFLVNTGTTLTFDTELTVQTVADLKHAIQSKYKIAIQHQVLVVNGGECMAADRRVCTYSAGTDTNPIFLFNKEMILCDRPPAIPKTTFSTENDMEIKVEESLMMPAVFHTVASRTQLALEMYEVAKKLCSFCEGLVHDEHLQHQGWAAIMANLEDCSNSYQKLLFKFESIYSNYLQSIEDIKLKLTHLGTAVSVMAKIPLLECLTRHSYRECLGRLDSLPEHEDSEKAEMKRSTELVLSPDMPRTTNESLLTSFPKSVEHVSPDTADAESGKEIRESCQSTVHQQDETTIDTKDGDLPFFNVSLLDWINVQDRPNDVESLVRKCFDSMSRLDPRIIRPFIAECRQTIAKLDNQNMKAIKGLEDRLYALDQMIASCGRLVNEQKELAQGFLANQKRAENLKDASVLPDLCLSHANQLMIMLQNHRKLLDIKQKCTTAKQELANNLHVRLKWCCFVMLHADQDGEKLQALLRLVIELLERVKIVEALSTVPQMYCLAVVEVVRRKMFIKHYREWAGALVKDGKRLYEAEKSKRESFGKLFRKSFLRNRLFRGLDSWPPSFCTQKPRKFDCELPDISLKDLQFLQSFCPSEVQPFLRVPLLCDFEPLHQHVLALHNLVKAAQSLDEMSQTITDLLSEQK
notes: FIP200 (RB1CC1), human, N-terminal domain, residues 1-640 of 1,594; the form printed without a tag in NSEM, MALS, HDX-MS and cryo-EM samples; also called FIP200 N-terminal domain; untagged FIP200NTD
B2: FIP200NTD–MBP (domain or fragment, human, UniProt Q8TDY2 1-640, looked up)
chain: B1 chain
notes: FIP200 (RB1CC1), human, N-terminal domain, residues 1-640 of 1,594; also called FIP200(N-640)–MBP; FIP200-MBP; not shown: GST, N-terminal, cleaved; MBP, C-terminal, kept
B3: MBP-FIP200NTD (domain or fragment, human, UniProt Q8TDY2 1-640, looked up)
chain: B1 chain
notes: FIP200 (RB1CC1), human, N-terminal domain, residues 1-640; also called N-terminal MBP–tagged FIP200NTD; not shown: MBP, N-terminal, kept
B4: ATG13(363-C) (domain or fragment, human, UniProt O75143 363-517, looked up)
chain: HDVLETIFVRKVGAFVNKPINQVTLTSLDIPFAMFAPKNLELEDTDPMVNPPDSPETESPLQGSLHSDGSSGGSSGNTHDDFVMIDFKPAFSKDDILPMDLGTFYREFQNPPQLSSLSIDIGAQSMAEDLDSLPEKLAVHEKNVREFDAFVETLQ
notes: ATG13, human, residue 363 to the C terminus
B5: MBP-ATG13MR (domain or fragment, human, UniProt O75143 363-460, looked up)
chain: HDVLETIFVRKVGAFVNKPINQVTLTSLDIPFAMFAPKNLELEDTDPMVNPPDSPETESPLQGSLHSDGSSGGSSGNTHDDFVMIDFKPAFSKDDILP
notes: ATG13, human, middle region, residues 363-460; not shown: MBP, N-terminal, kept

Experiments:
[1] = target: the molecule itself; assay: SEC-MALS; Superose 6 Increase 10/300 GL; 50 mM Tris, 150 mM NaCl, 1 mM TCEP, pH 7.8; sample ~6–10 µM, 100 µl injected
[2] = target: the molecule itself; assay: negative stain EM; purified samples diluted to ~50–200 nM, uranyl acetate stain, 2D classification; MBP tags used to mark positions
[3] = target: B1; assay: SEC-MALS; Superose 6 Increase 10/300 GL; 50 mM Tris, 150 mM NaCl, 1 mM TCEP, pH 7.8; sample ~6–10 µM, 100 µl injected; conditions: both partners purified
[4] = target: B1; assay: negative stain EM; purified samples diluted to ~50–200 nM, uranyl acetate stain, 2D classification; MBP tags used to mark positions; conditions: both partners purified

Binder	stoichiometry N [2]	stoichiometry N [3]	also measured
B1			stoichiometry N [1]: 2
B2	2		
B3	2		
B4		0.5 molecules per molecule of FIP200NTD (2:1 FIP200NTD:binder)	
B5		0.5 molecules per molecule of FIP200NTD (2:1 FIP200NTD:binder)	stoichiometry N [4]: 1 per FIP200NTD dimer

— PMC7337493 (The Journal of Cell Biology, 2020)
